Results taken from patent US10119980B2, “Method for detection of basic peptide and reagent for detection of basic peptide” (SYSMEX CORPORATION, priority 2009, dated 2018).

Key:
partial ACTH peptide [1] = target: T1, partial ACTH peptide (Homo sapiens, UniProt P01189); experiment: OD550 detection of basic peptide concentrated by OFFGEL fractionation from serum-containing specimen; conditions: Heat-denatured BSA: Yes; concentrated partial ACTH peptide fraction after OFFGEL fractionation, MES-HCl buffer pH 5.0
T1 construct: consisting of amino acids of positions 1 to 24 of ACTH; purchased Biologica Co
T1 sequence (P01189 138-161): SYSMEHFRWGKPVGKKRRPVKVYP
Method: A partial ACTH peptide consisting of amino acids of positions 1 to 24 of ACTH (Biologica Co.) was used as the basic peptide of interest. The peptide was dissolved in ultrapure water and mixed with serum of a healthy USA subject (SUNFCO) to prepare an actual serum sample containing the basic peptide of interest. The sample was prepared so as to obtain the concentrations of the partial ACTH peptide and serum as shown in (3) below.
(3) Preparation of sample solution containing concentrated basic peptide of interest. A glycerol solution (Agilent technologies; 6 ml) and an OFFGEL Buffer solution (Agilent technologies; 600 μl) were mixed followed by addition of ultrapure water to prepare a total volume of 50 ml of peptide buffer solution (×1.25), the pH of which is 3-10. This solution was mixed with the sample of the above (2) to prepare a peptide buffer solution (×1) with the concentration of 20 μM of the partial ACTH peptide and the concentration equivalent to 1000-fold dilution of serum. This solution was fractionated with using a High Resolution IPG gel for fraction whose pH is pH 3-10 on the OFFGEL fractionator (Agilent Technologies). […]
The thus-prepared mixed solutions were measured for absorbance at the wavelength of 550 nm (OD550) in a spectrophotometer UV-2500PC (Shimadzu Corporation).

partial ACTH peptide [2] = target: T1, partial ACTH peptide; experiment: OD550 Hill plot analysis in serum-based solution versus control solution; type: binding
Method: The peptide was dissolved in ultrapure water and mixed with serum collected from a healthy volunteer in USA (person) (SUNFCO) to prepare the serum-based sample containing the basic peptide of interest. The serum-based samples were prepared so as to adjust the final concentrations of the partial ACTH peptide and serum as shown in (3) below.
The denatured BSA solution prepared in the above (1) (50 μl) was mixed with the sample prepared in (2) followed by addition of ultrapure water to prepare a total volume of 250 μl of mixed solution containing serum (hereinafter referred to as “serum-based solution”). In the preparation, the serum-based sample was mixed so as to adjust a final concentration of the partial ACTH peptide of to 0 to 80 μM and adjust a final concentration of serum of to an equivalent to 100-fold dilution in the mixed solution. For a control, a mixed solution was also prepared without serum (hereinafter referred to as “control solution”).
The thus-prepared mixed solutions were measured for absorbance at the wavelength of 550 nm (OD550) with a spectrophotometer UV-2500PC (Shimadzu Corporation).
OD=(peptide concentration)^n/[(peptide concentration)^n+[Kd×(1+CHSA/Ki)]^n]

[3] = target: T2, partial ACTH peptide (positions 1 to 24 of ACTH) (Homo sapiens, UniProt P01189); experiment: Turbidity (OD550) measurement and Hill plot analysis of albumin reagents mixed with partial ACTH peptide; type: binding
T2 construct: consisting of the amino acids of positions 1 to 24 of ACTH
Method: BSA (Sigma-Aldrich) was dissolved in Milli-Q® water (Millipore) to prepare a BSA solution (1.0 w/v %). The BSA solution was divided into two and one was designated as a non-denatured BSA solution and the other was autoclaved at 110° C. for 15 minutes to obtain a heat-denatured BSA solution.
A partial ACTH peptide (Peptide Institute, Inc.) consisting of the amino acids of positions 1 to 24 of ACTH was used as the basic peptide of interest. The peptide was dissolved in ultrapure water to prepare a sample containing the basic peptide of interest (1.0 mg/ml).
The heat-denatured BSA solution prepared in the above (1) (50 μl) was mixed with the sample prepared in (2) followed by addition of ultrapure water to prepare a total volume of 250 μl of a mixed solution (final concentration of heat-denatured BSA: 0.2 w/v %). In this preparation, the sample was mixed so as to obtain a final concentration of the partial ACTH peptide in the mixed solution of 0 to 150 μM. A comparative mixed solution was also prepared in the similar manner except that the non-denatured BSA solution was used instead of the heat-denatured BSA solution.
The thus-prepared mixed solutions were measured for absorbance at the wavelength of 550 nm (OD550) in a spectrophotometer UV-2500PC (Shimadzu Corporation). The obtained results were subjected to Hill plot analysis with KaleidaGraph (HULINKS, Inc.) to calculate the values of Kd and the Hill coefficient of heat-denatured BSA and non-denatured BSA.
BSA (Sigma-Aldrich) was dissolved in Milli-Q® water (Millipore) to prepare a BSA solution (1.0 w/v %). The BSA solution was divided into five aliquots among which one was designated as a non-denatured BSA solution (heat denaturation period: 0 min) and the rest of four were heated in an autoclave at 110° C. for 5, 15, 60 and 120 min, respectively, to obtain heat-denatured BSA solutions.
The Kd value and Hill coefficient of BSA at respective heat denaturation periods were calculated. […]
The Kd value and Hill coefficient were calculated for the mixed solutions. […]

partial ACTH peptide [4] = target: T1, partial ACTH peptide; experiment: Detection capacity (turbidity, OD550) at various final concentrations of reagent for detection; design: key: “Y” denotes turbidity appearing; “N” does the absence of turbidity
Method: BSA (Sigma-Aldrich) was dissolved in ultrapure water to prepare a BSA solution (5.0 w/v %). The BSA solution was heated in an autoclave at 115° C. for 15 minutes to obtain a heat-denatured BSA solution.
A partial ACTH peptide consisting of amino acids of positions 1 to 24 of ACTH (Biologica Co.) was used as the basic peptide of interest. The peptide was dissolved in ultrapure water to prepare a sample containing the basic peptide of interest (1.0 mg/ml).
The heat-denatured BSA solution prepared in (1) was mixed with 30 μl or 60 μl of the sample prepared in (2) followed by addition of ultrapure water to prepare a total volume of 250 μl of mixed solutions. In the preparation, the reagent for detection (solution of heat-denatured BSA) was mixed with the respective samples so as to obtain a final concentration of the reagent for detection in the mixed solution of 0.1 to 5%.
The thus-prepared mixed solutions were measured for values of absorbance at the wavelength of 550 nm (OD550) with a spectrophotometer UV-2500PC (Shimadzu Corporation). The results obtained are summarized in Table 6, where “Y” denotes turbidity appearing and “N” does the absence of turbidity.

[5] = Control solution (without serum)
[6] = Serum solution (serum equivalent to 100-fold dilution)
[7] = Example 1, final BSA 0.2 w/v %, peptide 0 to 150 μM, OD550 Hill plot
[8] = Nucleic acid: Yes (salmon sperm DNA, final 10 μM)
[9] = heat denaturation period 5 min at 110° C.
[10] = heat denaturation period 15 min at 110° C.
[11] = heat denaturation period 60 min at 110° C.
[12] = heat denaturation period 120 min at 110° C.

Heat-denatured BSA: BSA solution (1.0 w/v %) in Milli-Q water autoclaved at 110° C. for 15 minutes; reagent for detection
OD550 (partial ACTH peptide [1]): 0.03 | Hill coefficient n (partial ACTH peptide [2]; [5]): 4 | Kd (partial ACTH peptide [2]; [5]): 25 µM | Hill coefficient n (partial ACTH peptide [2]; [6]): 3.4 | Kd (partial ACTH peptide [2]; [6]): 29 µM | Hill coefficient n [3, 7]: 8 | Kd [3, 7]: 30 µM | Hill coefficient n ([3]; Nucleic acid: No): 11 | Kd ([3]; Nucleic acid: No): 40 µM | Hill coefficient n [3, 8]: 8 | Kd [3, 8]: 30 µM | change in OD550 with increasing partial ACTH peptide concentration ([3]; albumin reagent mixed with partial ACTH peptide): increased in a concentration dependent manner | Hill coefficient n [3, 9]: 5 | Kd [3, 9]: 33 µM | Hill coefficient n [3, 10]: 8 | Kd [3, 10]: 30 µM | Hill coefficient n [3, 11]: 6 | Kd [3, 11]: 28 µM | Hill coefficient n [3, 12]: 4 | Kd [3, 12]: 33 µM | Detection capacity (in the case of 30 μM peptide) (partial ACTH peptide [4]; final conc. of reagent 0.1 %): Y | Detection capacity (in the case of 60 μM peptide) (partial ACTH peptide [4]; final conc. of reagent 0.1 %): Y | Detection capacity (in the case of 30 μM peptide) (partial ACTH peptide [4]; final conc. of reagent 0.2 %): Y | Detection capacity (in the case of 60 μM peptide) (partial ACTH peptide [4]; final conc. of reagent 0.2 %): Y | Detection capacity (in the case of 30 μM peptide) (partial ACTH peptide [4]; final conc. of reagent 0.4 %): Y | Detection capacity (in the case of 60 μM peptide) (partial ACTH peptide [4]; final conc. of reagent 0.4 %): Y | Detection capacity (in the case of 30 μM peptide) (partial ACTH peptide [4]; final conc. of reagent 0.5 %): Y | Detection capacity (in the case of 60 μM peptide) (partial ACTH peptide [4]; final conc. of reagent 0.5 %): Y | Detection capacity (in the case of 30 μM peptide) (partial ACTH peptide [4]; final conc. of reagent 0.7 %): Y | Detection capacity (in the case of 60 μM peptide) (partial ACTH peptide [4]; final conc. of reagent 0.7 %): Y | Detection capacity (in the case of 30 μM peptide) (partial ACTH peptide [4]; final conc. of reagent 1.0 %): Y | Detection capacity (in the case of 60 μM peptide) (partial ACTH peptide [4]; final conc. of reagent 1.0 %): Y | Detection capacity (in the case of 30 μM peptide) (partial ACTH peptide [4]; final conc. of reagent 5.0 %): Y | Detection capacity (in the case of 60 μM peptide) (partial ACTH peptide [4]; final conc. of reagent 5.0 %): Y
